{"source": "patent US20090028851A1", "about": "(MAXPLANCK GESELLSCHAFT ZUR F RDERUNG DER WISSENSCH, published 2009)", "key": {"[1]": {"molecular_target": "T1, SPOT peptide 6, MGDYEIFDEDTKT (also: covalently bound to a cellulose SPOT membrane)", "T1 construct": "also called spot 6", "T1 peptide": "MGDYEIFDEDTKT", "experiment": "SPOT peptide membrane, ECL"}, "[2]": {"molecular_target": "T2, SPOT peptide 7, DYEIFDEDTKTIR (also: covalently bound to a cellulose SPOT membrane)", "T2 construct": "also called spot 7", "T2 peptide": "DYEIFDEDTKTIR", "experiment": "SPOT peptide membrane, ECL"}, "[3]": {"molecular_target": "T3, SPOT peptide 3, HHHSSGMGDYEIF (also: covalently bound to cellulose SPOT membrane)", "T3 construct": "holds residues of the immunogen's His tag; also called spot 3", "T3 peptide": "HHHSSGMGDYEIF", "experiment": "SPOT peptide membrane, ECL"}, "[4]": {"molecular_target": "T4, SPOT peptide 8, EIFDEDTKTIRNN", "T4 construct": "also called spot 8", "T4 peptide": "EIFDEDTKTIRNN", "experiment": "SPOT peptide membrane, ECL"}, "[5]": {"molecular_target": "T5, SPOT peptide 5, SGMGDYEIFDEDT (also: covalently bound to a cellulose SPOT membrane)", "T5 construct": "also called spot 5", "T5 peptide": "SGMGDYEIFDEDT", "experiment": "SPOT peptide membrane, ECL"}, "[6]": {"molecular_target": "T6, SPOT peptide 4, HSSGMGDYEIFDE (also: covalently bound to cellulose SPOT membrane)", "T6 construct": "also called spot 4", "T6 peptide": "HSSGMGDYEIFDE", "experiment": "SPOT peptide membrane, ECL"}, "[7]": {"molecular_target": "T7, rat Eag1 (rat brain sections, hippocampus and cerebellum) (rat, UniProt Q63472 1-962)", "T7 construct": "whole, on cells; Native protein in fixed tissue sections (immunohistochemistry)", "T7 sequence (looked up)": "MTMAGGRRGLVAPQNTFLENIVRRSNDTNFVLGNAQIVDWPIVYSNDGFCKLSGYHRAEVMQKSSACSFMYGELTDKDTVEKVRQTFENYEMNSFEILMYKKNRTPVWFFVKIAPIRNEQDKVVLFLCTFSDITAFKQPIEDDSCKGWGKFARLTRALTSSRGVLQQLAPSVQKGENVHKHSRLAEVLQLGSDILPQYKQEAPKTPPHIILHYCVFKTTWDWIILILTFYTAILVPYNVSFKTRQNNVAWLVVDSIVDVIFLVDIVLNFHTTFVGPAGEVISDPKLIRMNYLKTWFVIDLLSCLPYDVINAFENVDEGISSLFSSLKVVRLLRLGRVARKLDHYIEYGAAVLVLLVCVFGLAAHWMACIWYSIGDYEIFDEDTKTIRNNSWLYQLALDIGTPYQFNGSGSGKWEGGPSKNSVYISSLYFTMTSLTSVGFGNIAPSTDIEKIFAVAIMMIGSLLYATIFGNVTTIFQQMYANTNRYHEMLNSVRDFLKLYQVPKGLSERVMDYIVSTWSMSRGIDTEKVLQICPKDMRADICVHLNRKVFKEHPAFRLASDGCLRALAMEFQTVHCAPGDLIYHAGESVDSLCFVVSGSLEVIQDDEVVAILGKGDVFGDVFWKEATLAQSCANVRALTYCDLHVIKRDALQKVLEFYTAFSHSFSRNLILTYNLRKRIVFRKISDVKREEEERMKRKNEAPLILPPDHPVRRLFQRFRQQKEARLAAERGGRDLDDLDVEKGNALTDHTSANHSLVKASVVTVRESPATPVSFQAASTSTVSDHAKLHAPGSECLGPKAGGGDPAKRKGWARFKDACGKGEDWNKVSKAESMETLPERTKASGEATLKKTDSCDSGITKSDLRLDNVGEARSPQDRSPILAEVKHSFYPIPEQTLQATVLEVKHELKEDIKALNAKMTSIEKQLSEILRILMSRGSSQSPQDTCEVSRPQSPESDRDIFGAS", "experiment": "immunohistochemistry on rat brain sections (hippocampus, cerebellum)"}, "[8]": {"molecular_target": "T8, SPOT peptide 23, GSGSGKWEGGPSK", "T8 construct": "also called spot 23", "T8 peptide": "GSGSGKWEGGPSK", "experiment": "SPOT peptide membrane, ECL"}, "[9]": {"molecular_target": "T9, SPOT peptide 22, FNGSGSGKWEGGP", "T9 construct": "also called spot 22", "T9 peptide": "FNGSGSGKWEGGP", "experiment": "SPOT peptide membrane, ECL"}, "[10]": {"molecular_target": "T10, SPOT peptide 24, GSGKWEGGPSKNS", "T10 construct": "also called spot 24", "T10 peptide": "GSGKWEGGPSKNS", "experiment": "SPOT peptide membrane, ECL"}, "[11]": {"molecular_target": "T11, SPOT peptide 21, YQFNGSGSGKWEG", "T11 construct": "also called spot 21", "T11 peptide": "YQFNGSGSGKWEG", "experiment": "SPOT peptide membrane, ECL"}, "[12]": {"molecular_target": "Eag1 ion channel expressed in cells (Eag1 overexpressing CHO K1 cells; Eag1-expressing oocytes; transfected HEK293 cells) (UniProt O95259)", "experiment": "cell-based or functional assay"}}, "note": "Where no end group is shown, it is not given here.", "data": [{"binder": "mouse monoclonal anti-Eag1 antibody ImAb4 (antibody, mouse IgG2b, kappa, V domains shown, Murine IgG2b / kappa) VH: DVQLQESGPGLVKPSQSLSLTCTVTGYSITSDYAWNWIRQFPGNKLEWMGYISYSGSTIYNPSLKSRISITRDTSKNQFFLQLNSVTTEDTATYYCARFGNYGNTLNYWGQGTSVTVSS VL: DVVMTQTPLSLPVSLGDQASISCRSSQSLVHSNGNTYLHWYLQKPGQSPKLLIYKVSNRFSGVPDRFSGSGSGTDFTLKISRVEAEDLGVYFCSQSTHVPPTFGGGTKLEIKR", "values": [{"measurement": "binding result", "setting": "[1]", "value": "binds"}, {"measurement": "binding result", "setting": "[2]", "value": "binds"}, {"measurement": "binding result", "setting": "[3]", "value": "binds"}, {"measurement": "binding result", "setting": "[4]", "value": "binds"}, {"measurement": "binding result", "setting": "[5]", "value": "binds"}, {"measurement": "binding result", "setting": "[6]", "value": "binds"}, {"measurement": "binding result", "setting": "[7]", "value": "binds"}]}, {"binder": "mouse monoclonal anti-Eag1 antibody ImAb3 (antibody, mouse IgG2b, kappa, V domains shown, Murine IgG2b / kappa) VH: EVKLVESGGGLVQPGGSLRLSCATSGFTFTDYYMSWVRQPPGKALEWLGFIRNKATGYTTEYSASVKGRFTISRDNSQSILYLQMNTLRAEDSATYYCARDFGSRWYFDVWGAGTTVTVSS VL: DIVMSQSPSSLAVSAGEKVTMSCKSSQSLLNSRTRKNYLAWYQQKPGQSPKLLIYWASTRESGVPDRFTGSGSGTDFTLTISSVQAEDLAVYYCKQSYDLRTFGGGTKLEIKR", "values": [{"measurement": "binding result", "setting": "[8]", "value": "binds"}, {"measurement": "binding result", "setting": "[9]", "value": "binds"}, {"measurement": "binding result", "setting": "[10]", "value": "binds"}, {"measurement": "binding result", "setting": "[11]", "value": "binds"}, {"measurement": "current inhibition, whole cell patch clamp on transfected HEK293 cells, 300 nM antibody", "setting": "[12]", "value": 35, "unit": "%"}]}]}
